Measured values reported in patent US20050054023.

Tests used:
[1] = tested on: T1, EGF RECEPTOR (Thr669) peptide RRELVEPLTPSGEA
T1 sequence: RRELVEPLTPSGEA

[2] = tested on: T2, MBPtide (Thr97) APRTPGGRR
T2 sequence: APRTPGGR

[3] = tested on: T3, TH (rat) Ser19 peptide RRAVSEQDAK
T3 sequence: RRAVSEQDAK

[4] = tested on: T4, TH (rat) Ser40 peptide GRRQSLIEDAR
T4 sequence: GRRQSLIEDAR

[5] = tested on: T5, TH (rat) Ser8 peptide PTPSAPSPQPK
T5 sequence: PTPSAPSPQPK

[6] = tested on: T6, rat TH-Ser31 peptide KQAEAVTSPR
T6 sequence: KQAEAVTSPR

ERKtide = tested on: T7, ERKtide
T7 sequence: ATGPLSPFGRR

peptide QATGPLSPGFRR-NH2 = tested on: T8, peptide QATGPLSPGFRR-NH2
T8 sequence: QATGPLSPGFRR

[7] = tested on: T9, peptide QATGPLSPGPFRR-NH2
T9 sequence: QATGPLSPGPFRR

[8] = tested on: T10, peptide YQATGPLSPGFRR-NH2
T10 sequence: YQATGPLSPGFRR

[9] = tested on: T11, peptide YQATGPLSPGPFRR-NH2
T11 sequence: YQATGPLSPGPFRR

[10] = tested on: T12, rat TH-Ser31 peptide AVTSPRFIGRR
T12 sequence: AVTSPRFIGRR

[11] = tested on: T13, rat TH-Ser31 peptide EAVTSPRFIGRR
T13 sequence: EAVTSPRFIGRR

[12] = tested on: T14, type 1 human TH-Ser31 peptide AIMSPRFIGRR
T14 sequence: AIMSPRFIGRR

[13] = tested on: T15, type 1 human TH-Ser31 peptide EAIMSPRFIGRR
T15 sequence: EAIMSPRFIGRR

[14] = tested on: T16, type 1 human TH-Ser31 peptide EAIMSPRFK
T16 sequence: EAIMSPRFK

[15] = tested on: T17, type 1 human TH-Ser31 peptide QAEAIMSPRFGRR-NH2
T17 sequence: QAEAIMSPRFGRR

[16] = tested on: T18, type 1 human TH-Ser31 peptide YQAEAIMSPRFIGRR-NH2
T18 sequence: YQAEAIMSPRFIGRR

[17] = tested on: T19, type 1 human TH-Ser31 peptide YQAEAIMSPRFIGRRQ
T19 sequence: YQAEAIMSPRFIGRRQ

[18] = tested on: T20, type 2 human TH-Ser31 peptide EAIMVRGQSPRFK
T20 sequence: EAIMVRGQSPRFK

[19] = tested on: T21, type 2 human TH-Ser31 peptide IMVRGQSPR
T21 sequence: IMVRGQSPR

[20] = tested on: T22, type 2 human TH-Ser31 peptide YIMVRGQSPR
T22 sequence: YIMVRGQSPR

Sequence of extracellular signal-regulated protein kinase 1 (purified, activated ERK1) (P27361 2-379): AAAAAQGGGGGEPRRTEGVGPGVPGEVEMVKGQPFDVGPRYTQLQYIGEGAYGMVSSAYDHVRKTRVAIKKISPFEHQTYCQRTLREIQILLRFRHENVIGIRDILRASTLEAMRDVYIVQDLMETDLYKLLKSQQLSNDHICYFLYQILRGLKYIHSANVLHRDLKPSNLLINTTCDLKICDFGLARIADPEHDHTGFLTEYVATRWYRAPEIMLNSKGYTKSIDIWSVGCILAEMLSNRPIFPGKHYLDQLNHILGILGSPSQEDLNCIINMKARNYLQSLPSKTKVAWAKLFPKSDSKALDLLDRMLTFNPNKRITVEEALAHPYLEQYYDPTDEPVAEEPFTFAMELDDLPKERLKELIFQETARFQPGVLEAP
Sequence of extracellular signal-regulated protein kinase 2 (purified, recombinant, activated ERK2) (P28482 2-360): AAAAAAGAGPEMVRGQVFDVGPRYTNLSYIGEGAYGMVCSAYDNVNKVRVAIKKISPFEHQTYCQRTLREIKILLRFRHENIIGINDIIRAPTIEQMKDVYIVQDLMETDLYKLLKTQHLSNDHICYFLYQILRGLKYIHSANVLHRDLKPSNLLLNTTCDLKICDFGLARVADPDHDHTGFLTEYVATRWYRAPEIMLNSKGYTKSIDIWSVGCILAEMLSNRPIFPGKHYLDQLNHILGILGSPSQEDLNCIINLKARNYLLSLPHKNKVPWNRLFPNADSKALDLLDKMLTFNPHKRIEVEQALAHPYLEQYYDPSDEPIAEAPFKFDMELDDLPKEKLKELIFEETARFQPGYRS

“extracellular signal-regulated protein kinase 1 (purified, activated ERK1)” was tested, and the RELATIVE ^32P INCORPORATION (% OF MBP) [1] was 13 % OF MBP, the RELATIVE ^32P INCORPORATION (% OF MBP) [2] was 28 % OF MBP and the “^32P incorporation” value [2] was “^32P incorporation into MBPtide (SEQ ID NO: 2) was 330 nmol/min/mg”. The RELATIVE ^32P INCORPORATION (% OF MBP) [3] was less than 1 % OF MBP, the RELATIVE ^32P INCORPORATION (% OF MBP) [4] was less than 1 % OF MBP and the RELATIVE ^32P INCORPORATION (% OF MBP) [5] was less than 1 % OF MBP. It also gave an RELATIVE ^32P INCORPORATION (% OF MBP) (myelin basic protein) of 100 % OF MBP and an RELATIVE ^32P INCORPORATION (% OF MBP) [6] of 5 % OF MBP.

For “extracellular signal-regulated protein kinase 2 (purified, recombinant, activated ERK2)”, the Km(app) (ERKtide) was 600 µM, the Vmax(app) Relative (ERKtide) was 82 Relative and the “apparent Vmax” value (ERKtide) was “The apparent Vmax of ERKtide (SEQ ID NO: 23) was 9.4 µmol/min/mg”. The Km(app) [2] was 2000 µM, the Vmax(app) Relative [2] was 46 Relative and the RELATIVE ^32P INCORPORATION (% 3.0 µmol/min/mg), Mean (% 3.0 µmol/min/mg) (peptide QATGPLSPGFRR-NH2) was 182. For the same substance, the RELATIVE ^32P INCORPORATION (% 3.0 µmol/min/mg), Mean (% 3.0 µmol/min/mg) [7] was 143, the RELATIVE ^32P INCORPORATION (% 3.0 µmol/min/mg), Mean (% 3.0 µmol/min/mg) [8] was 215 and the RELATIVE ^32P INCORPORATION (% 3.0 µmol/min/mg), Mean (% 3.0 µmol/min/mg) [9] was 164. For the same substance, the RELATIVE ^32P INCORPORATION (% 3.3 µmol/min/mg) (% 3.3 µmol/min/mg) [10] was 9, the RELATIVE ^32P INCORPORATION (% 3.3 µmol/min/mg) (% 3.3 µmol/min/mg) [11] was 20 and the Km(app) [6] was 1800 µM. For the same substance, the RELATIVE ^32P INCORPORATION (% 3.3 µmol/min/mg) (% 3.3 µmol/min/mg) [6] was 7, the Vmax(app) Relative [6] was 9 Relative and the RELATIVE ^32P INCORPORATION (% 3.3 µmol/min/mg) (% 3.3 µmol/min/mg) [12] was 29. It also gave an RELATIVE ^32P INCORPORATION (% 3.3 µmol/min/mg) (% 3.3 µmol/min/mg) [13] of 41, a Km(app) [14] of 1400 µM and an RELATIVE ^32P INCORPORATION (% 3.3 µmol/min/mg) (% 3.3 µmol/min/mg) [14] of 21. The Vmax(app) Relative [14] was 42 Relative, the RELATIVE ^32P INCORPORATION (% 3.0 µmol/min/mg), Mean (% 3.0 µmol/min/mg) [15] was 107 and the RELATIVE ^32P INCORPORATION (% 3.0 µmol/min/mg), Mean (% 3.0 µmol/min/mg) [16] was 117. For the same substance, the RELATIVE ^32P INCORPORATION (% 3.3 µmol/min/mg) (% 3.3 µmol/min/mg) [16] was 100, the “^32P incorporation” value [16] was 100 percent 32p incorporation reflects 3.3 µmol/min/mg and the Km(app) [17] was 1000 µM. It also gave an RELATIVE ^32P INCORPORATION (% 3.0 µmol/min/mg), Mean (% 3.0 µmol/min/mg) [17] of 100, an RELATIVE ^32P INCORPORATION (% 3.3 µmol/min/mg) (% 3.3 µmol/min/mg) [17] of 80 and a Vmax(app) Relative [17] of 80 Relative. The “^32P incorporation” value [17] was 100 percent ^32P incorporation reflects 3.0 µmol/min/mg, the RELATIVE ^32P INCORPORATION (% 3.3 µmol/min/mg) (% 3.3 µmol/min/mg) [18] was 2 and the RELATIVE ^32P INCORPORATION (% 3.3 µmol/min/mg) (% 3.3 µmol/min/mg) [19] was 1. For the same substance, the RELATIVE ^32P INCORPORATION (% 3.3 µmol/min/mg) (% 3.3 µmol/min/mg) [20] was 1.
